Results reported in the RNAGym collection of RNA variant scans (doi:10.1073/pnas.2313332121).

B1: TPR t1 (parent)
chain: GACCAAUCUGCCCUCAGAGCUCGAGAACAUCUUCGGAUGCAGAGGAGGCAGGCUUCGGUGGCGCGAUAGCGCCAACGUCCUCAACCUCCAAUGCAUCCCACCACAUGAUGAUGCCUGAAGAGCCUUGGUUUUUUG

Variants of: B1
Experiment: polymerase ribozyme fitness, log enrichment relative to wild type (log ratio); higher = more active; in vitro selection for triplet polymerase activity
How it was run: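 To select mutant libraries of each subunit of a heterodimeric triplet polymerase ribozyme, built by PCR and transcribed, each was annealed with a biotinylated primer, partner subunit and triplets, then incubated frozen at −7 °C. Extended constructs were gel-excised, captured on streptavidin beads and amplified by RT-PCR, in one round carried out in triplicate. Illumina sequencing of input and output libraries kept genotypes with ≥10 input reads and ≥1 read per output. Fitness is the base-2 logarithm of genotype enrichment relative to wild-type enrichment, from inverse-variance-weighted replicate averages.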

| Variant | polymerase ribozyme fitness (log ratio) |
| --- | --- |
| C13A G60U C72U A91U G120A | -2.35 |
| C12U G69U G77A | 0.767 |
| G45C G113C | -2.91 |
| G39A G117U | -2.58 |
| A119G U132A | 1.24 |
| A91U U112G | -1.73 |
| G52U A121C G127A | -0.484 |
| C8A C13G G61U A84U | -0.177 |
| A6G A29U A37G C56U C62G U87G A105C G117C | -5.41 |
| C11G C12G G48A G120C | 0.765 |
| C8A A119G U126G | -0.311 |
| U87A U106G U125G | -2.01 |
| C40G U87G | -1.6 |
| G93U U106A | -1.03 |
| G19A A46C U125A | -3.96 |
| C4A U9A C72A U78C | -0.731 |
| A6U G42C A74C C79G C123G U125A | -2.83 |
| A6U U9C G47A G63U | -1.85 |
| C13U C49A G71A | -0.504 |
| C12U G77C U81G | -1.21 |
| U7C G47A G48A G69U U78C | -0.567 |
| A16G A18C U54G | -0.225 |
| G23U G61U C86A A100U C114U G117U | -7.47 |
| C20A G61C A121G G128U | -5.15 |

| Variant | polymerase ribozyme fitness (log ratio) |
| --- | --- |
| C72G G122A C123G | 1.99 |
| G69A G117U | -5.17 |
| C12U G39U | -0.353 |
| A26U G61U C79U G93C G120C | -3.87 |
| C12G C102U | -1.38 |
| C22G C49A G127A U129G | -4.21 |
| C15G U96C G117C U130G | 0.208 |
| C3G G61A A90G C99U | -3.39 |
| G47A C62U | -1.85 |
| C72U U81G | -3.35 |
| C104U G127C | -1.03 |
| C31G U38G G51U G52C C94G G120U | -6.47 |
| A46U C98G | -6.78 |
| C11G A27U C49A G61A A84G | -4.25 |
| G77A C102A | -2.07 |
| A50C A111C C115U U129A | -6.02 |
| C11G G93U | 0.289 |
| C70U C123A | -0.0908 |
| A90C U106C U116G A119G U125G | -1.75 |
| C15U C28U C72G U96C | -3.94 |
| C53U C101A | -0.961 |
| G45C G60C A84G | -2.3 |
| A5C C62U C115A | -1.14 |
| A27G A90U U116C | -6.7 |

| Variant | polymerase ribozyme fitness (log ratio) |
| --- | --- |
| C11U G45A G48A A74U | -2.5 |
| U55G G71A | -1.19 |
| A37C C98U | -1.41 |
| G61A C72G | 0.08 |
| A6C C12U U38G C80U | -1.42 |
| G61A U130G | -0.92 |
| U9G G19A G110C U112C C123G C124G | -7.8 |
| A50C C72U G93U U112G | -2.29 |
| A37C G51C | -4.02 |
| A41U G63A C124U | -1.14 |
| C3A U9A G61C | -2.34 |
| C12U A83C G122U | 0.68 |
| A5U C62G A100U G120U | -3.08 |
| G61C A91U | -4.64 |
| G47A C94G C101U | -2.16 |
| U21C C73A C89A | -2.96 |
| A43U G47C G113U | -3.6 |
| C8G C97U U109G C123U | -4.98 |
| G42C G61C C79U A90C C115G G120U G122A | -4.78 |
| C4A A18C G42U C86G C114G | -3.47 |
| G63U U134C | -2.26 |
| C11G C15A A37U C99U A111C U112C | -4.47 |
| G71U G127A | -1.25 |
| G57A G69U C97A U132C | -3.61 |

| Variant | polymerase ribozyme fitness (log ratio) |
| --- | --- |
| A18C G61A C85G | -3.25 |
| U78C C86G | -0.656 |
| U9A C70U C88A C101U U132A | -0.202 |
| C12G U132A | -0.729 |
| U54G G93U A95C C101A G120A | -2.9 |
| C15U G71A | -2.11 |
| G110C U131C G135A | -2.51 |
| C22G G113C | -5.28 |
| A5G A43G G63A U112G | -5.31 |
| A2G C62A C85A | -3.14 |
| C15A C124G | 0.792 |
| C15G G71A A90G | -3.09 |
| A103C G120U | -4.69 |
| U7A C49U C53U U59A C70U C76A | -2.44 |
| U14C C102U | -3.54 |
| C49G G113A | -1.08 |
| C56G C79U U92A | -3.45 |
| C11U G71U | 0.863 |
| C40U C88A U106C | -1.06 |
| A6G C102A | -1.96 |
| C8G A27G G93U C104A A111U U125C | -4.25 |
| C4U G45U C124A | 0.121 |
| U9A A46G C53G C72U C82A G113U | -1.9 |
| C12G C56U U78A A90C C114U | -2.46 |

| Variant | polymerase ribozyme fitness (log ratio) |
| --- | --- |
| A2C G60A C82U | -2.16 |
| C62A U109C | -4.04 |
| G48A U131A | -0.843 |
| A29C C62A | -3 |
| A5U G61C | -1.74 |
| A6U G61A | -0.0423 |
| C20G A119U | -4.11 |
| G42U G58C C82G U87C | -2.71 |
| C8U C62G U106G U112A | -2.63 |
| A43C G60U U78C C104A G120C | -5.55 |
| C12U G71U A90G A121G | 1.71 |
| A18U C70U | -3.33 |
| G47C G69A | -4.38 |
| G47C G48U | -2.71 |
| G39U G48A C70U | -1.15 |
| C79A C102U | -4.37 |
| G39U G44C U59A | -2.12 |
| C72U A111C A121U G128A | -1.12 |
| C8G G60U | 0.698 |
| C70U C114G | -3.48 |
| U9C G63A A74C C89A C104A U112C | -5.39 |
| A29U U54G U55G C101U | -4.04 |
| G47A U81G C82U C86G | -1.44 |
| G60U U130G | -0.482 |

| Variant | polymerase ribozyme fitness (log ratio) |
| --- | --- |
| A18U G44A C94A C114A | -3.45 |
| A18G C64G C98U G117C | -5.51 |
| A37U C40A C94U | -4.04 |
| C56U A119U | -0.819 |
| G60C C124U | 1 |
| G35U C86U C98A | -4.39 |
| G47U C102U C124A U129C | -2.98 |
| C22A G36U C88U C115A | -5.17 |
| C12A C72U G113C | -4.5 |
| G69U G120A G128C | -1.25 |
| C34A G58A C89U A121G | -2.92 |
| C13U G51U U116C | -3.09 |
| C15U C72A C85G C102A | -3.1 |
| C11U G39U A43G | -3.16 |
| G110U U112G | -4.22 |
| C12U C72A | 0.312 |
| G48U G110A | -1.84 |
| G61U A74G G93U G117U | -5.63 |
| G48A U81A C102U | -4.06 |
| G36A G63A | -1.78 |
| G63U U130A | -1.46 |
| C56A G69C | -3.89 |
| A5C A75G U130G U133A | -0.35 |
| G17C U21G G60C C79U G117A C124G | -5.63 |

| Variant | polymerase ribozyme fitness (log ratio) |
| --- | --- |
| A29G C72U | -1.98 |
| C15U A74G A105G | -4.44 |
| C4A G71A A100U C123U | -2.04 |
| C13U C22U C86U | -4.45 |
| G36U G61C | -2.58 |
| C15G | -2.16 |
| C8U C72U U78C U81A A83G | -0.492 |
| A46U A84C C104A G128U | -4.76 |
| G10A C12A A29G G52U C56A G57C | -2.57 |
| C22U G63U C82U C124G U126A | -3.87 |
| G51U G58C G113C | -5.43 |
| C56A C79G | -0.642 |
| G44U C53A C56A U67C A111C | -6.43 |
| C12A U112A | 1.18 |
| A2G G17C C56U | -4.71 |
| C70A C72U U92G G120U | -6 |
| C82U C88U | -0.335 |
| C72U G113C | -2.1 |
| G44A U55A C70U C85G G113A | -4.29 |
| C40U C53A C73A C104U | 0.971 |
| C13U C49U C79A C97G U109A | -7.98 |
| U9G A41U G71A U81C U96A | -5.71 |
| C11U C82U | -1.45 |
